From publication PMC6364671

Molecular target: recombinant human CD74 (C27S) (human) (UniProt P04233)
Experiment: ELISA

| Substance | IC50 [nM] |
| --- | --- |
| DRα1-hMOG-35-55 (from UniProt P01903 15-97) | 1640 |
| DRα1-mMOG-35-55 | 937 |
